Measured values published in the RNAGym collection of RNA variant scans (doi:10.1073/pnas.2313332121).

B1: TPR t1 (parent)
chain: GACCAAUCUGCCCUCAGAGCUCGAGAACAUCUUCGGAUGCAGAGGAGGCAGGCUUCGGUGGCGCGAUAGCGCCAACGUCCUCAACCUCCAAUGCAUCCCACCACAUGAUGAUGCCUGAAGAGCCUUGGUUUUUUG

Variants of: B1
Assay: polymerase ribozyme fitness, log enrichment relative to wild type (log ratio); higher = more active; in vitro selection for triplet polymerase activity
Procedure, shortened: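 A single round of triplicate in vitro selection, including frozen incubation at −7 °C, was applied to PCR-built, transcribed mutant libraries of each subunit of a heterodimeric triplet polymerase ribozyme. Illumina sequencing of input and output libraries retained genotypes with ≥10 input reads and ≥1 read per output. Fitness is the base-2 logarithm of genotype enrichment divided by wild-type enrichment, from inverse-variance-weighted replicate averages.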

Row | Variant | polymerase ribozyme fitness (log ratio)
1 | C82G C89A | -2.23
2 | C85U A121G | 1.61
3 | C82U A119U | -0.592
4 | A83C G110C G120C | -5.9
5 | A84C C85G U133C | -0.825
6 | U87G | 0.133
7 | U87C | 0.386
8 | U87A | 0.0155
9 | C86G A90C U96C U112A C124A | -1.78
10 | C86G U92C | -2.6
11 | C86A G110A | -1.86
12 | C82U | -0.201
13 | C85A C101G | -3.91
14 | U87C G113A | -0.807
15 | C86A | -0.461
16 | C86G | -0.82
17 | C86U | -0.178
18 | C85A G107A U112G C114U G120U | -7.47
19 | C88A C98A | -4.39
20 | C86A C104U | 0.0777
21 | C86A G93C | -2.88
22 | C82U C97G | -4.81
23 | C82U C97A | -4.95
24 | C88A C123G | 1.69

Row | Variant | polymerase ribozyme fitness (log ratio)
25 | C85U U106G | -2.74
26 | U87C U106A G128C | -1.61
27 | C82U U96A | -1.57
28 | C82U U125A | -0.249
29 | C85U | -0.966
30 | C85A | -1.96
31 | C85G | -1.74
32 | A84C G120A | 0.816
33 | A84U A121C | 2.22
34 | U87A C104G A111U | -3.77
35 | C82U C88A G120U G128A | -1.98
36 | U87A U130A | -0.662
37 | C88A U116A | -3.6
38 | C88A U116G | -2.94
39 | C88A G113A C124A G135U | -1.79
40 | C85G C94U | -2.67
41 | C86A U109A | -5.39
42 | C82G G128A U133G | -2.64
43 | C82G C114A | -3.29
44 | C82U C85A C86U C97A C124G | -5.65
45 | U87G U126G | -1.84
46 | C82U A95C U106A | -0.318
47 | C82U C88U | -0.335
48 | A84G G117U G135U | -4.65

Row | Variant | polymerase ribozyme fitness (log ratio)
49 | C85A C94U U112C | 0.116
50 | A84G A91U | -3.76
51 | U87A C97U C98U G120A | -2.92
52 | C86G G113U | -3.98
53 | C86G G113C | -2.62
54 | U87A C124A | 1.83
55 | C86U U112C | 0.942
56 | C86U U112G | 0.18
57 | C86G U133A | -0.824
58 | C88A C104U G127A | -1.76
59 | C82U C86G A121G | 1.16
60 | U87G C99U | -3.22
61 | C85A G117C | -5.07
62 | A83G A84C | -1.03
63 | C85U C123U | -1.28
64 | A83C U96G U106A A121C | 1.64
65 | A84U G110C | -4.16
66 | A83G G120U | -0.6
67 | A84U C94G | -1.24
68 | C88A U109C | -5.25
69 | C88A U109A | -5.8
70 | A84U C124U | 0.806
71 | U87G C104U G117A | -3.2
72 | A83G U116A | -3.6

Row | Variant | polymerase ribozyme fitness (log ratio)
73 | U87A G117U U129G | -5.03
74 | U87A A111U | -2.69
75 | A83C A91G A111G | -1.85
76 | U87C C102U U112A G122A | -0.872
77 | C86A A103U | -4.95
78 | C85G C88U C123A | -0.368
79 | C88A C115G G120C C123A | 0.0548
80 | A84U G113A U132C G135A | -1.31
81 | A84G G120A C123A | -0.958
82 | A84G C88U C124U | 0.679
83 | C85G C89U | -0.78
84 | C85U A91C | -2.1
85 | A83C C94A | -0.753
86 | C88G A91C | -2.11
87 | A84G G120A U130G | -0.15
88 | U87G U106A A108C | -2.16
89 | U87A A108C G110A | -6.14
90 | U87C C89A G113A | -2.28
91 | U87C U116A A121G | 1.1
92 | C85A C88U U96G G113U | -5.67
93 | A83U C88U C101A | -1.52
94 | A84C C88G | -0.958
95 | C86A G113C | -3.02
96 | A83G G113U | -3.23

Row | Variant | polymerase ribozyme fitness (log ratio)
97 | C85A C114G | -4.62
98 | C86U A95C | -1.49
99 | C88G A95C | -4.58
100 | C82U G110U | -1.15
101 | C86G A103G | -5.43
102 | C88A U96C G110C U132C | -4.37
103 | C82U G110A C115G | -5.29
104 | C85U U116A G120C | -1.14
105 | C86G C115U | -2.67
106 | A83G A118U | 0.587
107 | U87G A91U | -1.46
108 | A84G G113U | -2.8
109 | A83U U96A | -0.525
110 | C88A G93U G120U | -3.17
111 | C86U C98A | -4.48
112 | A83C C104A C115U | -4.27
113 | C82G G117U C123G C124U | -1.39
114 | C88G A91U U112A | -1.38
115 | C86G C94U G110A U129A | -4.63
116 | C82G U125A | -0.86
117 | C82G C124U | 1.29
118 | U87C C114U | -1.5
119 | C86A C99U C101U A121G G122U | -1.38
120 | C85G C102U G113U G117A G120C | -5.52

Row | Variant | polymerase ribozyme fitness (log ratio)
121 | U87G C102U | -0.897
122 | U87G A111C | 1.16
123 | C86U C101G | -2.55
124 | U87A U106G U125G | -2.01
125 | C86U G120C | 1.51
126 | C86G C123U | 0.323
127 | C86G C123A | -0.0336
128 | C85G G110A | -3.38
129 | A84G U92C U106G G113C | -4.32
130 | C88A U106A G128U | -3.15
131 | C86U U96A U106G | -4.25
132 | A84G G113U G135A | -4.51
133 | C85G C88A C101A | -2.28
134 | C85U G93A G120U | -0.509
135 | C82G C88A | -1.21
136 | A84U U129A | -1.65
137 | C85U C86A C94G G117C | -6.16
138 | C82G C86U C102U U112G | -3.94
139 | A84U A103U G110C | -3.57
140 | C85A C89U U92G G117A | -4.94
141 | C86A U92A C115A C123G | -2.27
142 | A83U C98A C123A U125A | -4.08
143 | C88A C101G A119U | -3.66
144 | A84U C101A U116G A121U | -0.796

Row | Variant | polymerase ribozyme fitness (log ratio)
145 | C85U C86G A118C | -3.84
146 | A84C U96C A121G U125A | 1.66
147 | C85G G122A | -1.82
148 | C86U G117C | -3.53
149 | A83C C102A | -2.03
150 | C88G C114U | -1.84
151 | A83U C99A G117C U129G | -5.87
152 | C86U A111U | -2.11
153 | A83C C124G | 0.483
154 | A84G C115U | -2.86
155 | A83C G113A | -1.32
156 | A83C G113C | -2.78
157 | U87G C115U | -0.742
158 | A83U A100U C123U U125G | 0.186
159 | A84C U130A | -0.44
160 | C86G G122U | -1.75
161 | C85A G127C | -4.59
162 | C85A G127U | -4.56
163 | U87G U96A C102A | -2.66
164 | C82G A91C C115G | -2.49
165 | C85G U106C | -0.939
166 | C85U U109A A121G | -4.29
167 | U87A C97U | -0.196
